Data reported in patent US20190225669A1 (ACCELERON PHARMA, published 2019).
Where two headings read alike, the source gives them in different places. Each block holds one binder with its values, some of them ahead of it.

Legend:
BMP6 [1] = molecular target: T1, BMP6 (UniProt P22004 382-513, limits assumed); assay: Biacore SPR
T1 sequence (looked up): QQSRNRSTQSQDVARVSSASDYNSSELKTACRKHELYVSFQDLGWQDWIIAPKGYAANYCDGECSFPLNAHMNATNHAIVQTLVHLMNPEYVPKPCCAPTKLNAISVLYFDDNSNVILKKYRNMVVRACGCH
Procedure: (§1) Ligands were injected and allowed to flow over the captured receptor protein.

BMP7 [2] = molecular target: T2, BMP7 (UniProt P18075 293-431); assay: Biacore SPR
T2 sequence (looked up): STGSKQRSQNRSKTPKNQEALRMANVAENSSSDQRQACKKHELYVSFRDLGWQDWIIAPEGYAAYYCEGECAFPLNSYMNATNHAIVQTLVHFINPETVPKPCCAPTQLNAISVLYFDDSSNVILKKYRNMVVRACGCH
Procedure: as §1

BMP5 [3] = molecular target: T3, BMP5 (UniProt P22003 317-454, limits assumed); assay: Biacore SPR
T3 sequence (looked up): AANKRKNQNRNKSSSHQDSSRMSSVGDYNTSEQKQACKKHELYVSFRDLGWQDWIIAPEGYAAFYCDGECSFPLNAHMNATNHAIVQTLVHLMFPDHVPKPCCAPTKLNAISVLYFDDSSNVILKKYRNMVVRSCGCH
Procedure: as §1

BMP6 [4] = molecular target: T1, BMP6; assay: Biacore SPR; remark: listed apart in the source
Procedure: as §1

BMP6 [5] = molecular target: T1, BMP6; assay: Biacore SPR; remark: listed apart in the source
Procedure: as §1

GDF7 = molecular target: T4, GDF7 (UniProt Q7Z4P5 322-450, limits assumed); assay: Biacore SPR; kinetics indeterminate (transient)
T4 construct: also called BMP12
T4 sequence (looked up): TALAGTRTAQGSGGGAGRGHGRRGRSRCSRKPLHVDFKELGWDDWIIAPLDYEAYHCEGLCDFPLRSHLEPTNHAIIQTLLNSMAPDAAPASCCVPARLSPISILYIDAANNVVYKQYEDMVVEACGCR
Procedure: as §1

GDF5 [6] = molecular target: T5, GDF5 (UniProt P43026 382-501); assay: Biacore SPR; kinetics indeterminate (transient)
T5 construct: also called BMP14
T5 sequence (looked up): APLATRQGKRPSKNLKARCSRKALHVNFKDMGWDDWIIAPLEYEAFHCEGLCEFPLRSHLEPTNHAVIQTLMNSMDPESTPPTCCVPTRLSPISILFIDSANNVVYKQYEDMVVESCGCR
Procedure: as §1

BMP5 [7] = molecular target: T3, BMP5; assay: Biacore SPR; remark: listed apart in the source
Procedure: as §1

BMP6 [8] = molecular target: T1, BMP6; assay: Biacore SPR; remark: listed apart in the source
Procedure: as §1

BMP7 [9] = molecular target: T2, BMP7; assay: Biacore SPR; remark: listed apart in the source
Procedure: as §1

GDF6 = molecular target: T6, GDF6 (UniProt Q6KF10 336-455, limits assumed); assay: Biacore SPR
T6 construct: also called BMP13
T6 sequence (looked up): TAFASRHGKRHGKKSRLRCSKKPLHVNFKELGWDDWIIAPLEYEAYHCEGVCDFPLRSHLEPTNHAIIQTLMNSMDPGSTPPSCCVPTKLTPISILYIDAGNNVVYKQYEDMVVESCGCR
Procedure: as §1

BMP5 [10] = molecular target: T3, BMP5; assay: Biacore SPR; remark: listed apart in the source
Procedure: as §1

GDF5 [11] = molecular target: T5, GDF5; assay: Biacore SPR
Procedure: as §1

BMPRII-Fc homodimer = molecular target: T7, BMPRII-Fc homodimer (UniProt Q13873 27-150); assay: Biacore SPR; kinetics indeterminate (transient)
T7 construct: extracellular domain
T7 sequence (looked up): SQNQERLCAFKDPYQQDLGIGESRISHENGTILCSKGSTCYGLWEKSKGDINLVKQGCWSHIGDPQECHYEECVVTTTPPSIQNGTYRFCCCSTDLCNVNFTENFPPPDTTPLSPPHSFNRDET

Kd (BMP6 [1]): 1.1 nM | koff (BMP6 [1]): 0.007 s⁻¹ | kon (BMP6 [1]): 6.4e+06 M⁻¹ s⁻¹ | Kd (BMP7 [2]): 1.6 nM | koff (BMP7 [2]): 0.014 s⁻¹ | kon (BMP7 [2]): 8.8e+06 M⁻¹ s⁻¹ | Kd (BMP5 [3]): 2.9 nM | koff (BMP5 [3]): 0.075 s⁻¹ | kon (BMP5 [3]): 2.6e+07 M⁻¹ s⁻¹ | Kd (BMP6 [4]): 0.19 nM | koff (BMP6 [4]): 0.0068 s⁻¹ | kon (BMP6 [4]): 3.5e+07 M⁻¹ s⁻¹ | Kd (BMP6 [5]): 0.19 nM | koff (BMP6 [5]): 0.0068 s⁻¹ | kon (BMP6 [5]): 3.2e+07 M⁻¹ s⁻¹ | Kd (GDF7): > 12 nM | Kd (GDF5 [6]): > 9.6 nM | Kd (BMP5 [7]): 2.9 nM | koff (BMP5 [7]): 0.075 s⁻¹ | kon (BMP5 [7]): 2.6e+07 M⁻¹ s⁻¹ | Kd (BMP6 [8]): 0.16 nM | koff (BMP6 [8]): 0.0039 s⁻¹ | kon (BMP6 [8]): 2.4e+07 M⁻¹ s⁻¹ | Kd (BMP7 [9]): 1.6 nM | koff (BMP7 [9]): 0.014 s⁻¹ | kon (BMP7 [9]): 8.8e+06 M⁻¹ s⁻¹ | Kd (GDF6): 39 nM | koff (GDF6): 0.0057 s⁻¹ | kon (GDF6): 150000 M⁻¹ s⁻¹ | Kd (BMP5 [10]): 9.7 nM | koff (BMP5 [10]): 0.037 s⁻¹ | kon (BMP5 [10]): 3.8e+06 M⁻¹ s⁻¹ | Kd (GDF5 [11]): 1.1 nM | koff (GDF5 [11]): 0.0014 s⁻¹ | kon (GDF5 [11]): 1.2e+06 M⁻¹ s⁻¹
B1: ActRIIB-Fc homodimer (Fc fusion, UniProt Q13705 19-137, looked up, not shown: a dimerising Fc or GST)
chain: SGRGEAETRECIYYNANWELERTNQSGLERCEGEQDKRLHCYASWRNSSGTIELVKKGCWLDDFNCYDRQECVATEENPQVYFCCCEGNFCNERFTHLPEAGGPEVTYEPPPTAPTLLT
notes: extracellular domain; also called ActRIIB homodimer

Kd (BMPRII-Fc homodimer): > 2000 nM
B2: BMP2 (ligand, UniProt P12643 283-396, looked up)
chain: QAKHKQRKRLKSSCKRHPLYVDFSDVGWNDWIVAPPGYHAFYCHGECPFPLADHLNSTNHAIVQTLVNSVNSKIPKACCVPTELSAISMLYLDENEKVVLKNYQDMVVEGCGCR
